Data as given in patent US20210214461A1.

Legend:
[1] = target: pre-existing anti-scFv903 antibodies in human serum H21 (human); assay: competition ADA bridging ELISA
[2] = target: pre-existing anti-scFv903 antibodies in human serum H14 (human); assay: competition ADA bridging ELISA
[3] = target: pre-existing anti-scFv903 antibodies in human serum H55 (human); assay: competition ADA bridging ELISA
[4] = target: pre-existing anti-scFv903 antibodies in human serum H79 (human); assay: competition ADA bridging ELISA
[5] = target: pre-existing anti-scFv903 antibodies in human serum H69 (human); assay: competition ADA bridging ELISA
[6] = target: pre-existing anti-scFv903 antibodies in human serum H66 (human); assay: competition ADA bridging ELISA
[7] = target: pre-existing anti-scFv903 antibodies in human serum H46 (human); assay: competition ADA bridging ELISA
[8] = target: pre-existing anti-scFv903 antibodies in human serum H3 (human); assay: competition ADA bridging ELISA
[9] = target: pre-existing anti-scFv903 antibodies in human serum H21 (human); assay: competition ADA bridging ELISA, 100 mcg/ml competitor
[10] = target: pre-existing anti-scFv903 antibodies in human serum H54 (human); assay: as above
[11] = target: pre-existing anti-scFv903 antibodies in human serum H56 (human); assay: as above
[12] = target: pre-existing anti-scFv903 antibodies in human serum H40 (human); assay: as above
[13] = target: pre-existing anti-scFv903 antibodies in human serum H125 (human); assay: as above
[14] = target: pre-existing anti-scFv903 antibodies in human serum H26 (human); assay: as above
[15] = target: pre-existing anti-scFv903 antibodies in human serum H15 (human); assay: as above
[16] = target: pre-existing anti-scFv903 antibodies in human serum H14 (human); assay: as above
[17] = target: pre-existing anti-scFv903 antibodies in human serum H64 (human); assay: as above
[18] = target: pre-existing anti-scFv903 antibodies in human serum H81 (human); assay: as above
[19] = target: pre-existing anti-scFv903 antibodies in human serum H8 (human); assay: as above
[20] = target: pre-existing anti-scFv903 antibodies in human serum H55 (human); assay: as above
[21] = target: pre-existing anti-scFv903 antibodies in human serum H79 (human); assay: as above
[22] = target: pre-existing anti-scFv903 antibodies in human serum H53 (human); assay: as above
[23] = target: pre-existing anti-scFv903 antibodies in human serum H49 (human); assay: as above
[24] = target: pre-existing anti-scFv903 antibodies in human serum H76 (human); assay: as above
[25] = target: pre-existing anti-scFv903 antibodies in human serum H105 (human); assay: as above
[26] = target: pre-existing anti-scFv903 antibodies in human serum H50 (human); assay: as above
[27] = target: pre-existing anti-scFv903 antibodies in human serum H116 (human); assay: as above
[28] = target: pre-existing anti-scFv903 antibodies in human serum H80 (human); assay: as above
[29] = target: pre-existing anti-scFv903 antibodies in human serum H20 (human); assay: as above
[30] = target: pre-existing anti-scFv903 antibodies in human serum H69 (human); assay: as above
[31] = target: pre-existing anti-scFv903 antibodies in human serum H63 (human); assay: as above
[32] = target: pre-existing anti-scFv903 antibodies in human serum H86 (human); assay: as above
[33] = target: pre-existing anti-scFv903 antibodies in human serum H19 (human); assay: as above
[34] = target: pre-existing anti-scFv903 antibodies in human serum H60 (human); assay: as above
[35] = target: pre-existing anti-scFv903 antibodies in human serum H66 (human); assay: as above
[36] = target: pre-existing anti-scFv903 antibodies in human serum H96 (human); assay: as above
[37] = target: pre-existing anti-scFv903 antibodies in human serum H59 (human); assay: as above
[38] = target: pre-existing anti-scFv903 antibodies in human serum H46 (human); assay: as above
[39] = target: pre-existing anti-scFv903 antibodies in human serum H135 (human); assay: as above
[40] = target: pre-existing anti-scFv903 antibodies in human serum H29 (human); assay: as above
[41] = target: pre-existing anti-scFv903 antibodies in human serum H115 (human); assay: as above
[42] = target: pre-existing anti-scFv903 antibodies in human serum H3 (human); assay: as above

signal change in competition ELISA (% reduction in OD) [1]: -85%
signal change in competition ELISA (% reduction in OD) [2]: -96%
signal change in competition ELISA (% reduction in OD) [3]: -96%
signal change in competition ELISA (% reduction in OD) [4]: -97%
signal change in competition ELISA (% reduction in OD) [5]: -75%
signal change in competition ELISA (% reduction in OD) [6]: -96%
signal change in competition ELISA (% reduction in OD) [7]: -77%
signal change in competition ELISA (% reduction in OD) [8]: -85%
% reduction in OD [9]: -85.3%
% reduction in OD [10]: -91.7%
% reduction in OD [11]: -15.1%
% reduction in OD [12]: -94.6%
% reduction in OD [13]: -97.4%
% reduction in OD [14]: -96.8%
% reduction in OD [15]: -90%
% reduction in OD [16]: -96.5%
% reduction in OD [17]: -95.5%
% reduction in OD [18]: -94.4%
% reduction in OD [19]: -90.7%
% reduction in OD [20]: -96%
% reduction in OD [21]: -96.8%
% reduction in OD [22]: -34.6%
% reduction in OD [23]: -81.2%
% reduction in OD [24]: -48.6%
% reduction in OD [25]: -96.9%
% reduction in OD [26]: -88.5%
% reduction in OD [27]: -97.2%
% reduction in OD [28]: -85.3%
% reduction in OD [29]: -96.1%
% reduction in OD [30]: -74.7%
% reduction in OD [31]: -19.7%
% reduction in OD [32]: -86.7%
% reduction in OD [33]: -84.3%
% reduction in OD [34]: -94.8%
% reduction in OD [35]: -96.4%
% reduction in OD [36]: -78.5%
% reduction in OD [37]: -96.4%
% reduction in OD [38]: -77.1%
% reduction in OD [39]: -95.2%
% reduction in OD [40]: -78.7%
% reduction in OD [41]: -94.8%
% reduction in OD [42]: -85%
B1: scFv 791 (scFv)
scFv: MEIVMTQSPSTLSASLGDRVIITCQSSQSVYGNIWMAWYQQKSGKAPKLLIYQASKLASGVPSRFSGSGSGAEFSLTISSLQPDDFATYYCQGNFNTGDRYAFGQGTKLTVLGGGGGSGGGGSGGGGSGGGGSEVQLVESGGGLVQPGGSLRLSCTASGFTISRSYWICWVRQAPGKGLEWVACIYGDNDITPLYANWAKGRFPVSTDTSKNTVYLQMNSLRAEDTAVYYCARLGYADYAYDLWGQGTLVTVSS
